Test results taken from patent US20210253725A1 (BIONTECH, published 2021).
Changes are numbered by the printed parent chain. Names and notes keep the numbering of the source.

B1: P018.S.01.A.E02 (antibody, V domains shown)
VH: QSVEESGGRLVTPGTPLTLTCTASGFSLSNYYMSWVRQAPGKGLEWIGIISTYGDTYYATWAKGRFTISKTSTTVDLKITSPTTEDTATYFCARGSSDTYYTYFNLWGPGTLVTVSS
VL: DIVMTQTPASVEAAVGGTVTIKCQASQKIYNNLAWYQQKPGQPPKLLIYSASTLASGVPSRFKGSGSGTEFTLTISDLESADAATYYCQSYGVSANTISYGLPFGGGTEVVVK
notes: V regions on human Ig constant parts; also called AB27_14
B2: P018.S.09.A.F05 (antibody, V domains shown)
VH: QEQLEESGGDLVKPGASLTLTCTASGFSFSSNYCMCWVRQAPGKGLEWIACICAGASGATYYASWAKGRFTVSKTSSTTVTLQMTSLTGADTATYFCARYDNSGWGDFKLWGPGTLVTVSS
VL: DIVMTQTPASVSEPVGGTVTINCQASQNIGTYLAWYQQKPGQRPKLLIYAASYLASGVPSRFKGSGSGTEVALTISDLESADAATYYCQNTYYDSPVVGGAFGGGTEVVVK
notes: V regions on human Ig constant parts; also called AB27_157
B3: P018.S.09.A.G06 (antibody, V domains shown)
VH: QSVEESGGRLVTPGTPLTLTCTASGFSLSNYHMSWVRQAPGKGLEWIGIIYAGSDSTWYASWAKGRFTISKTSTTVDLKITSPTTEDTATYFCARQPGGGASDTQLDLWGQGTLVTVSS
VL: AAVLTQTASPVSAAVGGTVTINCQSSQNIFDNNQLSWFQHKSGQSPKLLIYRASTLASGVPSRFKGSGSGTQFTLTISDVQSDDAATYYCLGGYSSSSDTVFGGGTEVVVK
notes: V regions on human Ig constant parts; also called AB27_159
B4: P018.S.03.A.D05 (antibody, V domains shown)
VH: QSLEESGGRLVTPGTPLTLTCTASGFSLSSYYITWVRQAPGEGLEWIGTISTAGNTYFASWANGRFTISRTSTTVDLKMTSPTTEDTATYFCARDGAGDSNYYRNLWGQGTLVTVSS
VL: DIVLTQTPASVEAAVGGTVTIKCQASQSIDRFLAWYQQKPGQPPKLLIYDASDLASGVPSRFSGSGYGTEFTLTISGVQSEDAATYYCQQGYYISDIHNVFGGGTEVVVK
notes: V regions on human Ig constant parts; also called AB27_50
B5: P018.S.10.A.B02 (antibody, V domains shown)
VH: QSVEESGGRLVTPGGSLTLSCTVNGFSLSSHGVSWVRQAPGKGLEWIGIIYVISGHAYYASWAKGRFTISKTSTTVDLKIASPTTEDTATYFCARGNYGSDSGPNFTRLDLWGQGTLVTVSS
VL: AQVLTQTPSPVSATVGGTLTINCQASQSLYNNDYLAWYQQKPGQPPKLLIYLASTLASGVSSRFKGSGSGTQFTLTISGVQSDDAATYYCQGEFSCSSGDCLAFGGGTEVVVK
notes: V regions on human Ig constant parts; also called AB27_167
B6: P018.S.04.A.E05 (antibody, V domains shown)
VH: QSLEESGGDLVKPGASLTLTCTASGFSFSSDYYMCWVRQAPGKGLEWIACISAGSSGSIYYASWAKGRFTISKTSSTTVTLQMTSLTAADTATYFCAREASDSIYYPIFNLWGPGTLVTVSS
VL: AAVLTQTPSPVSAAVGGTVSISCQSSKSVYNNNALSWFQQKPGQPPKLLIYGASTLPSRVPSRFKGSGSGTQFTLTISDVQSDDAATYYCIGGYSSSSDTNAFGGGTEVVVK
notes: V regions on human Ig constant parts; also called AB27_76
B7: P018.S.05.A.A06 (antibody, V domains shown)
VH: QSLEESGGRLVTPGTPLTLTCTVSGIDLNNNAMSWVRQAPGEGLEWIGIISTAGTTTYASWTKGRFTISKTSTTVDLKITSPTTEDTATYFCARAAYFSYGYINLWGQGTLVTVSS
VL: DIVMTQTPASVEAAVGGTVTIKCQASQNIGNALAWYQQKSGQPPKLLIYSASTLASGVPSRFKGSGSGTEFTLTISDLESADATTYFCQSYVYSDGNVFGGGTEVVVK
notes: V regions on human Ig constant parts; also called AB27_82
B8: P018.S.05.A.D03 (antibody, V domains shown)
VH: QEQLEESGGDLVQPEGSLTLTCTVSGFSFNSNYWICWVRQAPGKGLEWIACIMTGDGSTYYATWAKGRFTISKTSSTTVTLQMTSLTAADTATYFCARGYDGIHGGDNYGHVFNLWGPGTLVTVSS
VL: AFELTQTPFSVSAVVGGTVTINCQASENIYSLLAWYQQKPGQPPKLLIYRASTLASGVPSRFKGSGSGTQFTLIISDLESGDAATYYCQSYYINSSNSFGGGTEVVVK
notes: V regions on human Ig constant parts; also called AB27_86
B9: P018.S.08.A.F01 (antibody, V domains shown)
VH: QSVEESGGRLVTPGTPLTLTCTVSGSDISGYALGWVRQAPGKGLEYIGVIAADGNAYYASWAKGRFTISRTSTTVDLKMTSLTTEDTATYFCARGYSSGWGTYGYFDLWGQGTLVTVSS
VL: DIVMTQTPASVSAAVGGTVTIKCQASEDIYSYLAWYQQKPGQPPKLLIYRASTLESGVPSRFKGSGSGTQFTLTISDLESADAATYYCQSYYYSHSTTYSNVFGGGTEVVVK
notes: V regions on human Ig constant parts; also called AB27_140
B10: P018.S.05.A.B06 (antibody, V domains shown)
VH: QSVEESGGRLVTPGTPLTLTCTVSGFSLNTYVMSWVRQAPGKGLEWIGYIDYGGAPYYASWAKGRFTISKTSTTVELKITSPTIEDTATYFCARGGYGGYVLVTVLWGPGTLVTVSS
VL: DVVMTQTPASVSEPVGGTVTIKCQASQNIYSSLAWYQQKPGQPPKLLIYQASTLASEVPSRFKGSGSGTEFTLTINDLESADAATYYCQTYYGGSTYGNGFGGGTEVVVE
notes: V regions on human Ig constant parts; also called AB27_84
B11: P018.S.07.A.A02 (antibody, V domains shown)
VH: B10 VH with N29S, T30S
VL: B10 VL with T53R, N76S
notes: V regions on human Ig constant parts; also called AB27_113
B12: P018.S.03.A.D04 (antibody, V domains shown)
VH: QEHLEESGGGLVQPGGTLTLTCKASGIDFSSSYYMCWVRQAPGKGLERLACTYNRDGSTYYASWAKGRFTISKTSSTTVTLQMTSLTVADTATYFCARDDGYPGSGYVLNLWGPGTLVTVSS
VL: DVVMTQTPASVEAAVGGTVTIRCQASQSVSNYFSWYQQKPGQPPKLLIYGASNLESGVPSRFKGSGSGTEFTLTISGVQSDDAATYYCQGGYYSSNTDNNSFGGGTEVVVK
notes: V regions on human Ig constant parts; also called AB27_49
B13: P018.S.11.A.F02 (antibody, V domains shown)
VH: QSVEESGGRLVTPGTPLTLTCTASGFSLSNYNMGWVRQAPGEGLEWIGHISTDGSAYYASWAKGRFTISKTSTTVDLKITSPTTEDTGTYFCARLYYRHGYALNLWGQGTLVTVSS
VL: DIVMTQTPASVSEPVGGTVTIKCQASQSVGSYLAWYQQKSGQPPKLLIYSASTLASGVPSRFKGSGSGTEFTLTISDLVSADAATYYCHCTYGSNITANWGTFGGGTGVVVK
notes: V regions on human Ig constant parts; also called AB134_38
B14: P018.S.12.A.H03 (antibody, V domains shown)
VH: QSLEESRGGLVQPEGSLTLTCKASGFSFSSGYYMCWVRQAPGKGLEWIGCIYSGSDSACYASWAKGRFTISKTSSTTVTLQMTSLTVADTATYFCVRDLGDYNALSYTINLWGPGTLVTVSS
VL: DVVMTQTPSSVSAAVGGTVTIKCQASQSISTNLAWYQEKAGQPPKLLIYRASTVASGVPSRFKGSGSGTQFTLTISDLESADATTYFCQCIDYDDYGGTFGGGTEVVVK
notes: V regions on human Ig constant parts; also called AB134_89

target: T1, CD27 expressed on the cell surface of HT1080_CD27 cells (human, UniProt P26842 20-260); assay: cell-based or functional assay
T1 sequence (looked up): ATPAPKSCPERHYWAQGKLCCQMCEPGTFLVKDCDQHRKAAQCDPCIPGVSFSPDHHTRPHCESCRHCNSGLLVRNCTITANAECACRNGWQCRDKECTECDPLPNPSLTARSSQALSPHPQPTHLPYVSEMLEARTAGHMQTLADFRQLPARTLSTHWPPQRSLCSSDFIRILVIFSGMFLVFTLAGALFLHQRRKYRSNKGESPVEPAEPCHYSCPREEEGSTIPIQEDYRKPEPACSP
Also: test concentration or dose not given here.

| Binder | Functional assay Cross-linked by F(ab′)2 fragment IL-8 [abs. corr.] | Functional assay IL-8 [abs. corr.] |
| --- | --- | --- |
| B1 | 1.17 | 0.276 |
| B2 | 1.68 | 0.158 |
| B3 | 1.34 | 0.467 |
| B4 | 1.5 | 0.5 |
| B5 | 1.91 | 0.47 |
| B6 | 1.77 | 0.747 |
| B7 | 1.58 | 0.324 |
| B8 | 1.28 | 0.1 |
| B9 | 1.11 | 0.211 |
| B10 | 1.7 | 0.22 |
| B11 | 1.85 | 0.059 |
| B12 | 1.23 | 0.513 |

target: T2, CD134 expressed on the cell surface of HT1080_OX40 cells (human, UniProt P43489 29-277); assay: cell-based or functional assay
T2 sequence (looked up): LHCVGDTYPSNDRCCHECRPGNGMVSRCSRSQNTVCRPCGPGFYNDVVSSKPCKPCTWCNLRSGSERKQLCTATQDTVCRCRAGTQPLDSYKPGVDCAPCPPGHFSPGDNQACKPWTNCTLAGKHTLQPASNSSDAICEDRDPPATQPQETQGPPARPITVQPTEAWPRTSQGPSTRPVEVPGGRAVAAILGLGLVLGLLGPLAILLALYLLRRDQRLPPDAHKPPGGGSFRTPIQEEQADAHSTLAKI

| Binder | Functional assay Cross-linked by F(ab′)2 fragment IL-8 [abs. corr.] | Functional assay IL-8 [abs. corr.] |
| --- | --- | --- |
| B13 | 1.38 | -0.011 |
| B14 | 1.27 | -0.074 |

target: T1, CD27 expressed on the cell surface of …; assay: HT1080_CD27 cells, imaging

| Binder | Cellular binding assay [RFU] |
| --- | --- |
| B1 | 360 |
| B2 | 400 |
| B3 | 338 |
| B4 | 324 |
| B5 | 249 |
| B6 | 319 |
| B7 | 374 |
| B8 | 321 |
| B9 | 395 |
| B10 | 309 |
| B11 | 314 |
| B12 | 270 |

target: T2, CD134 expressed on the cell surface of …; assay: HT1080_OX40 cells, imaging

| Binder | Cellular binding assay [RFU] |
| --- | --- |
| B13 | 503 |
| B14 | 496 |

target: T3, CD27 protein (His-tagged, Sino Biological Inc. 10039-H08B1) (human, UniProt P26842 20-192); assay: ELISA, coated His-tagged CD27
T3 construct: bought protein coated on ELISA plates; also called TNFRSF7; not shown: His tag
T3 sequence (looked up): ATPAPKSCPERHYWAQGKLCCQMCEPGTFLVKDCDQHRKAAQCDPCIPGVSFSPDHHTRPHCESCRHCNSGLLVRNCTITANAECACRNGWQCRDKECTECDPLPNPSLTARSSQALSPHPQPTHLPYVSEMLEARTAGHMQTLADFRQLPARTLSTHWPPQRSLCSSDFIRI

| Binder | ELISA [abs. corr.] |
| --- | --- |
| B1 | 3.13 |
| B2 | 3.12 |
| B3 | 3.12 |
| B4 | 3.12 |
| B5 | 3.11 |
| B6 | 3.11 |
| B7 | 3.11 |
| B8 | 3.1 |
| B9 | 3.1 |
| B10 | 3.1 |
| B11 | 3.08 |
| B12 | 3.1 |

target: T4, CD134 protein (His-tagged, Sino Biological Inc. 10481-H08H) (human, UniProt P43489 29-216); assay: ELISA, coated His-tagged CD134
T4 construct: bought protein coated on ELISA plates; also called OX40; TNFRSF4; not shown: His tag
T4 sequence (looked up): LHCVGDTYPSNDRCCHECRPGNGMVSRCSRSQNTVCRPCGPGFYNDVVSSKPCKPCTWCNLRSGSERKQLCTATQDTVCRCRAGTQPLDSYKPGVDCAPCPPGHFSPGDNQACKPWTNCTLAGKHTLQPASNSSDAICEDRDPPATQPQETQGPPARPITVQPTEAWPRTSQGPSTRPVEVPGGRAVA

| Binder | ELISA [abs. corr.] |
| --- | --- |
| B13 | 2.43 |
| B14 | 2.48 |
